Assay results as given in patent US20160083701A1 (UNITED STATES OF AMERICA AS REPRESENTED BY THE DEPARTMENT …, published 2016).

What was measured:
[1] = target: His-tagged recombinant rat AKAP18δ (rAKAP18δ) (rat) (UniProt Q6JP77); test: co-IP with anti-his beads, anti-Flag immunoblot, band ratios; reference is the same reaction without rPKAc
[2] = target: T1, Purified recombinant SERCA2 (rSERCA2, Abnova) (UniProt P16615 1-1042, limits assumed); test: co-IP of the Flag-tagged construct with purified rSERCA2 (150 ng), anti-Flag IP, anti-SERCA2 immunoblot
T1 construct: Bought protein; The legend gives 1042 amino acids, while the discussion calls it SERCA2a
Excerpt: FIG. 11 a-d. rPKAc phosphorylates rhPDE3A and increases its interactions rSERCA2. A. Schemes representing PDE3A1 [NHR1: trans-membrane domain (obligatory membrane insertion domain); NHR2: membrane association domain; CCR: conserved C-terminal catalytic region; P1-4: predicted PKA phosphorylation sites; rhPDE3A and truncated mutants (PDE3A2, PDE3A-A510, PDE3A-RD), and rSERCA2 (1042 amino acids, 3-77 cation transporter N-terminal; 93-341, E1-E2 ATPase; 345-724, haloacid dehydrogenase like hydrolase; 819-991, cation transporter ATPase C-terminus). B. Putative PKA phosphorylation sites of PDE3A designated with asterisks. […] Proteins were immunoprecipitated with anti-Flag antibodies and immunoblotted with anti-SERCA2 (upper panel), or anti-Flag (middle panel). Lower panel: input control (SERCA2). Shown are representative blots from three independent experiments. (RD: regulatory domain; AA: amino acid).

Chain of His-tagged recombinant rat AKAP18δ (rAKAP18δ) (rat) (Q6JP77 whole entry, stated change not applied): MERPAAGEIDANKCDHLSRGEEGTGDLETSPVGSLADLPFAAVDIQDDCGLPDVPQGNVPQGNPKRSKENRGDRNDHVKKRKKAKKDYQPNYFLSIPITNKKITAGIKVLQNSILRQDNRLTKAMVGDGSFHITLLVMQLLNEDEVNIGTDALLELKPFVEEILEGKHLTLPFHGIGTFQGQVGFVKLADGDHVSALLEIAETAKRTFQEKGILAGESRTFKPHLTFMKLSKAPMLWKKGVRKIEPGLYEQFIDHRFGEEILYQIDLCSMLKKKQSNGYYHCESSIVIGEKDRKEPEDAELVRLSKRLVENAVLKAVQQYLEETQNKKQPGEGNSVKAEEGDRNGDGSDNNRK
T1 sequence (P16615 whole entry): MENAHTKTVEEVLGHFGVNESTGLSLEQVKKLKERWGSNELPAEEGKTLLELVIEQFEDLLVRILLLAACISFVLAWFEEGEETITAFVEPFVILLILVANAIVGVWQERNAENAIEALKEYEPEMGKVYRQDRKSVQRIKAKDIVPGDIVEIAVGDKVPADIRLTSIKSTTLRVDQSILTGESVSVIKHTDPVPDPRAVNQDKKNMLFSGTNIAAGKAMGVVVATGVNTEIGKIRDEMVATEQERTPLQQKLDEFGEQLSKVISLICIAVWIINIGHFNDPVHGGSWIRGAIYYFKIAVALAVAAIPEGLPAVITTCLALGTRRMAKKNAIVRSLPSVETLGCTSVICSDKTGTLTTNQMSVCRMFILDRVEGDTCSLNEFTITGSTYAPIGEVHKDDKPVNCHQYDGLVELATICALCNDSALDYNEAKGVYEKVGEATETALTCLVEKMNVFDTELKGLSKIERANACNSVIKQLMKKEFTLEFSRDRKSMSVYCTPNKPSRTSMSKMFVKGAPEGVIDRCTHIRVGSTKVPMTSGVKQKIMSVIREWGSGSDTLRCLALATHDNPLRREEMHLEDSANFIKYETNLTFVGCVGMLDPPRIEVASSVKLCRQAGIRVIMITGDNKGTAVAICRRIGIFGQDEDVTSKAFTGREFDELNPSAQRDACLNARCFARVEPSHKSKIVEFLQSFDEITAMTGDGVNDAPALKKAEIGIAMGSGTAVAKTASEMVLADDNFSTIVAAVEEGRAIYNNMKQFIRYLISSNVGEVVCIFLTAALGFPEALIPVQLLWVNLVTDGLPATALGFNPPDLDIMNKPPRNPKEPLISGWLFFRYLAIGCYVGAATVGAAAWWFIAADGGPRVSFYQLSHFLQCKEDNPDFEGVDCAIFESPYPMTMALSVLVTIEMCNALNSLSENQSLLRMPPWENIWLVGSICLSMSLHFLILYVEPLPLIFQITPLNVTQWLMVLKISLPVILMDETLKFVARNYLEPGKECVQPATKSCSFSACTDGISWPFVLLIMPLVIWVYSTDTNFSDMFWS

| fold increase in binding (with rPKAc against control without rPKAc) [1] | binding result [2] | Molecule |
| --- | --- | --- |
| 9 fold |  | Flag-tagged recombinant human PDE3A1 (rhPDE3A1), phosphorylated in vitro by rPKAc (from UniProt Q14432 146-1141) (enzyme) |
|  | no binding | rhPDE3A-A510 (recombinant form lacking the first 510 aa of the PDE3A open reading frame) (enzyme, The range 511-1141 follows from the statement that the first 510 aa of the open reading frame were deleted; Incubated with or without rPKAc) SRPGALAKISPLSSPCSSPLQGTPASSLVSKISAVQFPESADTTAKQSLGSHRALTYTQSAPDLSPQILTPPVICSSCGRPYSQGNPADEPLERSGVATRTPSRTDDTAQVTSDYETNNNSDSSDIVQNEDETECLREPLRKASACSTYAPETMMFLDKPILAPEPLVMDNLDSIMEQLNTWNFPIFDLVENIGRKCGRILSQVSYRLFEDMGLFEAFKIPIREFMNYFHALEIGYRDIPYHNRIHATDVLHAVWYLTTQPIPGLSTVINDHGSTSDSDSDSGFTHGHMGYVFSKTYNVTDDKYGCLSGNIPALELMALYVAAAMHDYDHPGRTNAFLVATSAPQAVLYNDRSVLENHHAAAAWNLFMSRPEYNFLINLDHVEFKHFRFLVIEAILATDLKKHFDFVAKFNGKVNDDVGIDWTNENDRLLVCQMCIKLADINGPAKCKELHLQWTDGIVNEFYEQGDEEASLGLPISPFMDRSAPQLANLQESFISHIVGPLCNSYDSAGLMPGKWVEDSDESGDTDDPEEEEEEAPAPNEEETCENNESPKKKTFKRRKIYCQITQHLLQNHKMWKKVIEEEQRLAGIENQSLDQTPQSHSSEQIQAIKEEEEEKGKPRGEEIPTQKPDQ |
